This test addresses T1, human APOBEC3G (human, UniProt Q9HC16 1-384).
T1 construct: also called A3G; hA3G; not shown: Strep-tag, C-terminal, kept
Nature of the test: cryo-EM structure; single-particle cryo-EM of the co-expressed, co-purified complex (SEC peak fraction, 1.9 μM; 30 mM HEPES, 150 mM NaCl, 5% glycerol, 1 mM TCEP); co-purified insect-cell ssRNA between A3G and Vif; monomer map 2.7 Å, dimer states 1, 1' and 2. The settings on record: both partners purified.

These results are taken from publication PMC10033410 (Nature, 2023).

T1 sequence (Q9HC16 whole entry): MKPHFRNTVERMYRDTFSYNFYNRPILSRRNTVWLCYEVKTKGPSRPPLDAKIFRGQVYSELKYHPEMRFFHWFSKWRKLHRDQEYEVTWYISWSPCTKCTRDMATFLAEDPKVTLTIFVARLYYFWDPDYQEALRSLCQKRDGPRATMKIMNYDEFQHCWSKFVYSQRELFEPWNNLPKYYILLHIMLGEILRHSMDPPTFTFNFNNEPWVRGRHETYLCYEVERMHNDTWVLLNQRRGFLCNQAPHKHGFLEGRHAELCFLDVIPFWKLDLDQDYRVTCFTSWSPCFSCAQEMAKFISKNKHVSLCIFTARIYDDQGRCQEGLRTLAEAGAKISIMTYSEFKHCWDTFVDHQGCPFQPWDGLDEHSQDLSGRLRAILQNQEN

B1: HIV-1 HXB2 Vif (natural protein)
chain: not shown
notes: also called Vif_(HXB2)
Take B1: the binding result is “binds”.
